Reference: publication PMC6517398, “Selection of a novel DNA aptamer against OFA/iLRP for targeted delivery of doxorubicin to AML cells”

Target: T1, OFA/iLRP extracellular epitope peptide (UniProt P08865)
T1 chain: NQIQAAFREPR
Assay: flow cytometry of coated beads; PBS (pH not stated), 200 uL, 30 min, room temperature; 2x10^5 coated beads with 20-40 pmol FAM-ssDNA (cells: 40-60 pmol); washed once or twice with PBS
Conditions: label: FAM (5' in selection primer); single strand, 59 nt

B1: AB3 (ssDNA)
DNA: TGCGTGTGTAGTGTGTCTGTTGTTTGTATTGTTGTCTATCCTCTTAGGGATTTGGGCGG
Kd: 101 nM
